# In US7202329 (MYRIAD GENETICS, dated 2007):
# T1: Tsg101 (aa 50-391) (human, UniProt Q99816 50-390)
# T1 construct: range 50-391
# T1 sequence (looked up): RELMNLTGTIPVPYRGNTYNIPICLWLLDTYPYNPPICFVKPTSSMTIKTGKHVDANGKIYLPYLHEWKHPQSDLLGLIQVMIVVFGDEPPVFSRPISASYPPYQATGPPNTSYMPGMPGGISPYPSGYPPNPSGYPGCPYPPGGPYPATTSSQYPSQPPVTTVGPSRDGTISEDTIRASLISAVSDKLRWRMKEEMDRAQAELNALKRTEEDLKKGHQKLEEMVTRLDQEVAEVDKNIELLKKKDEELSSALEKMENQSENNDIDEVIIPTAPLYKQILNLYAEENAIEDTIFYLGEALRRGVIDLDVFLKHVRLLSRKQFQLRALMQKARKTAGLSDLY
# T2: Tsg101 (aa 231-391) (human, UniProt Q99816 231-390)
# T2 sequence (looked up): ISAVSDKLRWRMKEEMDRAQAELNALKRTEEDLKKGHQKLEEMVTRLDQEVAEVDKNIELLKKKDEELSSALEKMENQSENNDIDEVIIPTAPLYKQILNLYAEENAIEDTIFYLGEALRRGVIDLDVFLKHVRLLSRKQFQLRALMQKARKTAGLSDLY
# T3: Tsg101 (aa 12-326) (human, UniProt Q99816 12-326)
# T3 sequence (looked up): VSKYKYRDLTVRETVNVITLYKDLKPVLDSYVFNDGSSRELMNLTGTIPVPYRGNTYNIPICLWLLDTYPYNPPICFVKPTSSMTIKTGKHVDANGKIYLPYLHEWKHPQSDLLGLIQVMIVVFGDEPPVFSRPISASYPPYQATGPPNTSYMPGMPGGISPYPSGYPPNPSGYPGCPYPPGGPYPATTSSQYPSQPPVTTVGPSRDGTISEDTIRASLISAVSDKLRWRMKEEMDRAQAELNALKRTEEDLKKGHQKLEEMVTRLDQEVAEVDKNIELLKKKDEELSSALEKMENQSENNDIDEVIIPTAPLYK
# T4: Tsg101 (aa 240-391) (human, UniProt Q99816 240-390)
# T4 construct: range 240-391; also called C-terminal fragment of Tsg101; amino acid residues 240-390
# T4 sequence (looked up): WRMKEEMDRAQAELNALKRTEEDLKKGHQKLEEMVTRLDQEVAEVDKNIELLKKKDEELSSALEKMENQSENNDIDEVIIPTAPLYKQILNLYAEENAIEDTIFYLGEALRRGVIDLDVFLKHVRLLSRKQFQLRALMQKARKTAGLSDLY
# T5: Tsg101 (aa 140-270) (human, UniProt Q99816 140-270)
# T5 construct: range 140-270
# T5 sequence (looked up): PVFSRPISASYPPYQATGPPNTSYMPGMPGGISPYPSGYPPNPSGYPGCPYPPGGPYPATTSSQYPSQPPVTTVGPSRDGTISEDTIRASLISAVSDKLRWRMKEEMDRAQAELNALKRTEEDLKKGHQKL
# B1: hypothetical protein FLJ10540 (aa 1-110) (other, UniProt Q53EZ4 1-110, looked up)
# chain: MSSRSTKDLIKSKWGSKPSNSKSETTLEKLKGEIAHLKTSVDEITSGKGKLTDKERHRLLEKIRVLEAEKEKNAYQLTEKDKEIQRLRDQLKARYSTTTLLEQLEETTRE
# notes: range 1-110
# B2: hypothetical protein FLJ10540 (aa 1-117) (other, UniProt Q53EZ4 1-117, looked up)
# chain: MSSRSTKDLIKSKWGSKPSNSKSETTLEKLKGEIAHLKTSVDEITSGKGKLTDKERHRLLEKIRVLEAEKEKNAYQLTEKDKEIQRLRDQLKARYSTTTLLEQLEETTREGERREQV
# notes: range 1-117
# B3: hypothetical protein FLJ10540 (aa 1-231) (other, UniProt Q53EZ4 1-231, looked up)
# chain: MSSRSTKDLIKSKWGSKPSNSKSETTLEKLKGEIAHLKTSVDEITSGKGKLTDKERHRLLEKIRVLEAEKEKNAYQLTEKDKEIQRLRDQLKARYSTTTLLEQLEETTREGERREQVLKALSEEKDVLKQQLSAATSRIAELESKTNTLRLSQTVAPNCFNSSINNIHEMEIQLKDALEKNQQWLVYDQQREVYVKGLLAKIFELEKKTETAAHSLPQQTKKPESEGYLQE
# B4: hypothetical protein FLJ10540 (aa 115-231) (other, UniProt Q53EZ4 115-231, looked up)
# chain: EQVLKALSEEKDVLKQQLSAATSRIAELESKTNTLRLSQTVAPNCFNSSINNIHEMEIQLKDALEKNQQWLVYDQQREVYVKGLLAKIFELEKKTETAAHSLPQQTKKPESEGYLQE
# B5: Tropomyosin TM30 p1 (TPM4) (aa 79-142) (other, human, UniProt P67936 79-142, looked up)
# chain: EAEKAADESERGMKVIENRAMKDEEKMEIQEMQLKEAKHIAEEADRKYEEVARKLVILEGELER
# notes: range 79-142
# B6: Tropomyosin TM30 p1 (TPM4) (aa 91-142) (other, human, UniProt P67936 91-142, looked up)
# chain: MKVIENRAMKDEEKMEIQEMQLKEAKHIAEEADRKYEEVARKLVILEGELER
# notes: range 91-142
# B7: Rho-associated (ROCK1) (aa 462-617) (other, UniProt Q13464 462-617, looked up)
# chain: KIMKELDEEGNQRRNLESTVSQIEKEKMLLQHRINEYQRKAEQENEKRRNVENEVSTLKDQLEDLKKVSQNSQLANEKLSQLQKQLEEANDLLRTESDTAVRLRKSHTEMSKSISQLESLNRELQERNRILENSKSQTDKDYYQLQAILEAERRDR
# notes: also called Rho-associated coiled coil-containing kinase ROCK1
# B8: Zinc finger protein 231 (ZNF231) (aa 2308-2438) (other, UniProt Q9UPA5 2308-2438, looked up)
# chain: EEPLPTTTPAAIKEAAGAPAPAPLAGQKPPADAAPGGGSGALSRPGFEKEEASQEERQRKQQEQLLQLERERVELEKLRQLRLQEELERERVELQRHREEEQLLVQRELQELQTIKHHVLQQQQEERQAQF
# notes: range 2308-2438
# B9: Chromosome-associated polypeptide HCAP (aa 208-300) (other, human, UniProt Q9UQE7 208-300, looked up)
# chain: EELAQYQKWDKMRRALEYTIYNQELNETRAKLDELSAKRETSGEKSRQLRDAQQDARDKMEDIERQVRELKTKISAMKEEKEQLSAERQEQIK
# notes: range 208-300
# B10: Golgi autoantigen (Golgin-84) (aa 198-497) (other, UniProt Q8TBA6 198-497, looked up)
# chain: SKENVSSNAACPDHTPTPNDDGKSHELSNLRLENQLLRNEVQSLNQEMASLLQRSKETQEELNKARARVEKWNADHSKSDRMTRGLRAQVDDLTEAVAAKDSQLAVLKVRLQEADQLLSTRTEALEALQSEKSRIMQDQSEGNSLQNQALQTFQERLHEADATLKREQESYKQMQSEFAARLNKVEMERQNLAEAITLAERKYSDEKKRVDELQQQVKLYKLNLESSKQELIDYKQKATRILQSKEKLINSLKEGSGFEGLDSSTASSMELEELRHEKEMQREEIQKLMGQIHQLRSELQ
# notes: range 198-497
# B11: Golgi autoantigen (Golgin-84) (aa 198-501) (other, UniProt Q8TBA6 198-501, looked up)
# chain: SKENVSSNAACPDHTPTPNDDGKSHELSNLRLENQLLRNEVQSLNQEMASLLQRSKETQEELNKARARVEKWNADHSKSDRMTRGLRAQVDDLTEAVAAKDSQLAVLKVRLQEADQLLSTRTEALEALQSEKSRIMQDQSEGNSLQNQALQTFQERLHEADATLKREQESYKQMQSEFAARLNKVEMERQNLAEAITLAERKYSDEKKRVDELQQQVKLYKLNLESSKQELIDYKQKATRILQSKEKLINSLKEGSGFEGLDSSTASSMELEELRHEKEMQREEIQKLMGQIHQLRSELQDMEA
# notes: range 198-501
# B12: Accessory proteins BAP31/BAP29 (BAP31) (aa 184-246) (other, UniProt P51572 184-246, looked up)
# chain: LKADLQKLKDELASTKQKLEKAENQVLAMRKQSEGLTKEYDRLLEEHAKLQAAVDGPMDKKEE
# notes: range 184-246
# B13: GTPase-activating protein 1 (aa 1406-1547) (other, UniProt P46940 1406-1547, looked up)
# chain: EILETPATSEQEAEHQRAMQRRAIRDAKTPDKMKKSKSVKEDSNLTLQEKKEKIQTGLKKLTELGTVDPKNKYQELINDIARDIRNQRRYRQRRKAELVKLQQTYAALNSKATFYGEQVDYYKSYIKTCLDNLASKGKVSKK
# notes: range 1406-1547; also called IQGAP1; IQGAP
# B14: GTPase-activating protein 1 (aa 1404-1553) (other, UniProt P46940 1404-1553, looked up)
# chain: LTEILETPATSEQEAEHQRAMQRRAIRDAKTPDKMKKSKSVKEDSNLTLQEKKEKIQTGLKKLTELGTVDPKNKYQELINDIARDIRNQRRYRQRRKAELVKLQQTYAALNSKATFYGEQVDYYKSYIKTCLDNLASKGKVSKKPREMKG
# notes: range 1404-1553; also called IQGAP1; IQGAP
# B15: GTPase-activating protein 1 (aa 1439-1565) (other, UniProt P46940 1439-1565, looked up)
# chain: KKSKSVKEDSNLTLQEKKEKIQTGLKKLTELGTVDPKNKYQELINDIARDIRNQRRYRQRRKAELVKLQQTYAALNSKATFYGEQVDYYKSYIKTCLDNLASKGKVSKKPREMKGKKSKKISLKYTA
# notes: range 1439-1565; also called IQGAP1; IQGAP
# B16: GTPase-activating protein 1 (aa 1439-1567) (other, UniProt P46940 1439-1567, looked up)
# chain: KKSKSVKEDSNLTLQEKKEKIQTGLKKLTELGTVDPKNKYQELINDIARDIRNQRRYRQRRKAELVKLQQTYAALNSKATFYGEQVDYYKSYIKTCLDNLASKGKVSKKPREMKGKKSKKISLKYTAAR
# notes: range 1439-1567; also called IQGAP1; IQGAP
# B17: GTPase-activating protein 1 (aa 1463-1568) (other, UniProt P46940 1463-1568, looked up)
# chain: LKKLTELGTVDPKNKYQELINDIARDIRNQRRYRQRRKAELVKLQQTYAALNSKATFYGEQVDYYKSYIKTCLDNLASKGKVSKKPREMKGKKSKKISLKYTAARL
# notes: range 1463-1568; also called IQGAP1; IQGAP
# B18: mitotic spindle coiled-coil related protein (aa 942-1021) (other, UniProt Q96R06 942-1021, looked up)
# chain: LGSDKSAFTRVASMVSLQPAETPGMEESLAEMSIMTTELQSLCSLLQESKEEAIRTLQRKICELQARLQAQEEQHQEVQK
# notes: range 942-1021
# B19: intersectin 1 (aa 436-547) (other, UniProt Q15811 436-547, looked up)
# chain: AAKRELERQRQLEWERNRRQELLNQRNKEQEDIVVLKAKKKTLEFELEALNDKKHQLEGKLQDIRCRLTTQRQEIESTNKSRELRIAEITHLQQQLQESQQMLGRLIPEKQI
# notes: range 436-547
# B20: intersectin 1 (aa 437-584) (other, UniProt Q15811 437-584, looked up)
# chain: AKRELERQRQLEWERNRRQELLNQRNKEQEDIVVLKAKKKTLEFELEALNDKKHQLEGKLQDIRCRLTTQRQEIESTNKSRELRIAEITHLQQQLQESQQMLGRLIPEKQILNDQLKQVQQNSLHRDSLVTLKRALEAKELARQHLRD
# notes: range 437-584
# B21: hypothetical protein FLJ10540 (aa 1-74) (other, UniProt Q53EZ4 1-74, looked up)
# chain: MSSRSTKDLIKSKWGSKPSNSKSETTLEKLKGEIAHLKTSVDEITSGKGKLTDKERHRLLEKIRVLEAEKEKNA
# notes: range 1-74
# B22: hypothetical protein FLJ10540 (aa 1-115) (other, UniProt Q53EZ4 1-115, looked up)
# chain: MSSRSTKDLIKSKWGSKPSNSKSETTLEKLKGEIAHLKTSVDEITSGKGKLTDKERHRLLEKIRVLEAEKEKNAYQLTEKDKEIQRLRDQLKARYSTTTLLEQLEETTREGERRE
# notes: range 1-115
# B23: hypothetical protein FLJ10540 (aa 1-120) (other, UniProt Q53EZ4 1-120, looked up)
# chain: MSSRSTKDLIKSKWGSKPSNSKSETTLEKLKGEIAHLKTSVDEITSGKGKLTDKERHRLLEKIRVLEAEKEKNAYQLTEKDKEIQRLRDQLKARYSTTTLLEQLEETTREGERREQVLKA
# notes: range 1-120
# B24: hypothetical protein FLJ10540 (aa 2-132) (other, UniProt Q53EZ4 2-132, looked up)
# chain: SSRSTKDLIKSKWGSKPSNSKSETTLEKLKGEIAHLKTSVDEITSGKGKLTDKERHRLLEKIRVLEAEKEKNAYQLTEKDKEIQRLRDQLKARYSTTTLLEQLEETTREGERREQVLKALSEEKDVLKQQL
# Biological target: T1, Tsg101 (aa 50-391)
# Assay: yeast two-hybrid
row,Binder,binding result
1,B1,binds
2,B2,binds
3,B3,binds
4,B4,binds

# Biological target: T2, Tsg101 (aa 231-391)
# Assay: yeast two-hybrid
row,Binder,binding result
1,B5,binds
2,B6,binds
3,B7,binds
4,B8,binds
5,B9,binds

# Biological target: T3, Tsg101 (aa 12-326)
# Assay: yeast two-hybrid
row,Binder,binding result
1,B10,binds
2,B11,binds
3,B12,binds

# Biological target: T4, Tsg101 (aa 240-391)
# Assay: yeast two-hybrid
row,Binder,binding result
1,B13,binds
2,B14,binds
3,B15,binds
4,B16,binds
5,B17,binds
6,B18,binds
7,B19,binds
8,B20,binds

# Biological target: T5, Tsg101 (aa 140-270)
# Assay: yeast two-hybrid
row,Binder,binding result
1,B21,binds
2,B22,binds
3,B23,binds
4,B24,binds
